Tests used:
[1] = target: T1, human GITR-Fc fusion protein (human, UniProt Q9Y5U5 26-162); assay: SPR (BIAcore 2000), mAb captured on anti-mouse Fc, antigen injected
T1 construct: extracellular domain; also called hGITR-Fc; recombinant human GITR-Fc; not shown: Fc part
T1 sequence (looked up): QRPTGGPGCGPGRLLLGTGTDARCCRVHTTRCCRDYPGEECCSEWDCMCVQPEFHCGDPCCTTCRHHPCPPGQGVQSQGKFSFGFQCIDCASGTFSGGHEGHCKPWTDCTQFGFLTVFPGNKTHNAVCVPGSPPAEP
Procedure: (§1) The binding kinetics of several anti-GITR antibodies to recombinant human GITR (hGITR) and cynomolgus monkey GITR (cGITR) were determined by surface plasmon resonance assay using a BIAcore 2000 (BIAcore Inc., […].). Briefly, a CM5 BIAcore biosensor chip was docked into the instrument and activated with 250 μL of 1:1 NHS/EDC at room temperature. A rabbit anti-mouse Fc IgG1 mAb (BIAcore #BR-1005-14) (13.5 μg/mL in 0.05M acetate buffer, pH 5) was immobilized on the activated chips in Flow cell 1. The immobilization was carried out at a flow rate of 5 μL/min. The chip was then blocked by injection of 55 μL of ethanolamine-HCl, pH 8.5, followed by five washes with 50 mM NaOH, 1M NaCl. To measure the binding of anti-GITR mabs to the human GITR protein or cyno GITR protein, antibodies were used at 2 μg/mL in BIAcore running buffer (HBS-EP). Antigens (human GITR or cyno GITR) were injected from 3 to 1000 nM. Following completion of the injection phase, dissociation was monitored in a BIAcore running buffer at the same flow rate for 360 sec. The surface was regenerated between injections using 30 μL of 50 mM NaOH-1 M NaCl. Individual sensorgrams were analyzed using […].

[2] = target: T2, cynomolgus monkey GITR-Fc (cynomolgus monkey); assay: as above
T2 construct: extracellular domain; also called cGITR-FC; cGITR
Procedure: as §1

[3] = target: T3, human GITR expressed on cells (human, UniProt Q9Y5U5 26-241); assay: Meso Scale assay, Sulfo-conjugated antibody on coated HEK293-Trex-hGITR cells
T3 construct: whole, on cells; Used for HEK293 transfectants and for PHA-stimulated human PBMCs; also called hGITR; cell surface hGITR
T3 sequence (looked up): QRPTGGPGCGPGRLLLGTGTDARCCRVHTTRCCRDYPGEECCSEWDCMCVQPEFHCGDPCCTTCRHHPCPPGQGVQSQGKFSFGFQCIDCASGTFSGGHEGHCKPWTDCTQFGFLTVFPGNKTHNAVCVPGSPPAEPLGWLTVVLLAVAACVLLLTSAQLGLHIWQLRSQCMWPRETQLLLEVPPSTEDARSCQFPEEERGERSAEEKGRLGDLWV
Procedure: The binding kinetics of anti-GITR antibodies to hGITR expressed on the surface of HEK293 cells were determined by Meso Scale assay. HEK293-Trex-hGITR cells (#2404) were coated at 25000 cells/well on a 96-well High Bind plate (MSD L15XB-3) for 2 hours at room temperature. Wells were washed 2 times with 150 μl/well of PBS and blocked with 150 μl/well of blocking solution for 30 min at room temperature. Following two washes with 150 μl/well of PBS, 25 μL/well of Sulfo-conjugated antibodies were added in 2-fold serial dilutions starting at 100 μg/ml up to 12 dilutions in assay diluent and incubated for 45 min at room temperature followed by two washes with PBS. The antibody binding was evaluated by adding 150 μl/well 1× Read buffer T without surfactant and read using the Mesoscale instrument.

[4] = target: T1, human GITR-Fc fusion protein; assay: competition ELISA, GITRL coated, GITR-Fc 0.25 µg/mL pre-incubated with antibody
Procedure: The ability of anti-GITR antibodies to inhibit the binding of human GITRL to hGITR was assessed using a competition ELISA. Ninety-six well plates were coated with GITR-Ligand protein at 0.5 μg/well at 4° C., overnight. Wells were washed with washing buffer (PBS pH 7.4+0.05 Tween 20) and blocked with 200 μL of blocking buffer (PBS pH 7.4+0.05% Tween 20+1% BSA) for 1 hour at room temperature. Wells were then washed two times with washing buffer and exposed to 100 μL of pre-incubated mixtures of GITR-Fc at 0.25 μg/mL plus anti-GITR antibody in 2-fold serial dilutions starting at 10 μg/ml up to 12 dilutions for 1 hour at room temperature with agitation. Plates were washed four times with washing buffer and GITR-Ligand-bound recombinant human GITR-Fc was detected with the use of peroxidase-conjugated goat anti-human IgG-Fc (Sigma), followed by incubation with the TMB substrate (Interchim)
All antibodies generated using the methods disclosed herein were able to antagonize the binding of GITRL to GITR more potently than the prior art MAB689 antibody.

[5] = target: T2, cynomolgus monkey GITR-Fc; assay: SPR; KD on cGITR-Fc over KD on hGITR-Fc
Procedure: as §1

[6] = target: T1, human GITR-Fc fusion protein; assay: competition ELISA, GITRL coated, GITR 0.25 µg/mL pre-incubated with antibody
Procedure: Ninety-six well plates were coated with GITR-Ligand proteins at 0.5 μg/well at 4° C. overnight. Wells were washed with washing buffer (PBS pH 7.4+0.05 Tween 20) and blocked with 200 μL of blocking buffer (PBS pH 7.4+0.05% Tween 20+1% BSA) for 1 hour at room temperature. […] Plates were washed four times with washing buffer and GITR-Ligand-bound recombinant human GITR-Fc was detected with the use of peroxidase-conjugated goat, anti-human IgG-Fc (Sigma), followed by incubation with the TMB substrate (Interchim ref UP664780).

[7] = target: T3, human GITR expressed on cells; assay: FACS on HEK293-Trex-hGITR cells, Michaelis binding plot
Procedure: (§2) Wells were washed 3 times with 200 μl/well of PBS+1% BSA by centrifugation at 350 g for 5 minutes. Then, 100 μL of a 1:400 dilution of Alexa 647-conjugated, anti-human IgG-Fc (Invitrogen) was added to each well. Following incubation at 4° C. for 45 minutes in the dark, the plate was washed with PBS-1% BSA three times. Cells were resuspended in 150 μL of PBS-1% BSA and analyzed using GUAVA instrument.

[8] = target: T3, human GITR expressed on cells; assay: FACS (Guava) on HEK293-Trex-hGITR cells, Alexa 647 anti-human IgG-Fc detection; fitted half-maximal concentration in the legend box, unit from the x axis 'mAb concentrations (µg/mL)'
Procedure: as §2

[9] = target: T4, human GITR protein (form not stated) (human, UniProt Q9Y5U5 26-161, limits assumed); assay: ELISA, GITR protein coated
T4 construct: also called hGITR
T4 sequence (looked up): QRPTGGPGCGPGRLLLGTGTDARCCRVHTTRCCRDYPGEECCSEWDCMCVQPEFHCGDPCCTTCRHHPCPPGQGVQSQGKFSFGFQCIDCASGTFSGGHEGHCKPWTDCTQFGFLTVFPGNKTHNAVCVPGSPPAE
Procedure: Ninety-six well plates were coated with GITR protein at 0.25 μg/well at 4° C., overnight. Wells were washed with washing buffer (PBS pH 7.4+0.05 Tween 20) and blocked with 200 μL of blocking buffer (PBS pH 7.4+0.05% Tween 20+1% BSA) for 1 hour at room temperature. […] The plate was incubated at room temperature for 1 h and washed five times with PBS-T. Then, 100 μL of a 1:50 000 dilution of peroxidase-conjugated goat anti-human IgG-Fc (Sigma)) was added to each well. Following incubation at room temperature for 1 h in the dark, the plate was washed with PBS-T, five times. Antibody binding was visualized by adding 100 μL/well of TMB-H₂O₂ substrate buffer (Interchim) The reaction proceeded at room temperature for 10 min and was read using an ELISA plate reader at a wavelength of 450 nm.

Binder | Kd [1] [nM] | koff [1] [s⁻¹] | Kd [2] [nM] | koff [2] [s⁻¹] | Kd [3] [nM] | IC50 [4] [nM] | Ratio cKD/hKD [5] | IC50 [6] [nM] | Kd [7] [nM] | EC50 [8] [µg/mL] | EC50 [9] [nM]
anti-GITR antibody clone 706 (antibody, V domains shown, Murine hybridoma antibody; also called 706-GITR2; 706 GITR-2) VH: EVQLQQSGTVLARPGASVKMSCEASGYSFTTYWMHWIKQRPGQGLEWIGAIYPGNSDTGYNQKFKGKAKLTAVTSASTAYMELSSLTNEDSAVYYCTRTSTYPHFDYWGQGTTLTVSS VL: DILLTQSPAILSVSPGERVSFSCRASQSIGTSIHWYQQRTNGSPRLLIKYASESISGIPSRFSGSGSGTDFTLNINSVESEDIADYYCQQTNNWPLTFGAGTKLELK | 5.95 | 0.000221 | 31.8 | 0.000662 | 7.24 | 2.82 | 5.3 | – | – | – | –
anti-GITR antibody clone 698 (antibody, V domains shown, Murine hybridoma antibody; also called 698-GITR2; 698 GITR-2) VH: EVQLQQSGTVLARPGASVKMSCEASGYSFTTYWMHWIKQRPGQGLEWIGAIYPGNSDTGYNQKFKGKAKLTAVTSATTAYMELSSLTDEDSAVYYCTRTSTYPHFDYWGQGTTLTVSS VL: DILLTQSPAILSVSPGERVSFSCRASQSIGTSIHWYQQRTNGSPRLLIKYASESISGIPSRFSGSGSGTDFTLNINSVESEDIADYYCQQSNNWPLTFGAGTKLELK | 6.67 | 0.000224 | 36.8 | 0.000707 | 6.8 | 1.9 | 5.5 | – | – | – | –
anti-GITR antibody clone 827 (antibody, V domains shown, Murine hybridoma antibody; also called 827-GITR2; 827 GITR-2) VH: EVQLQQSGTVLARPGASVKMSCETSGYSFTTYWIHWIKQRPGQGLEWIATIYPGNSDAGYNQKFRGKAKLTAVTSASTAYMELSSLTNEDSAVYYCTRSSTYPHFDYWGQGTTLTVSS VL: DILLTQSPAILSVSPGERVSFSCRASQSIGTSIHWYQQRTNDSPRLLIKYASESISGIPSRFSGSGSGTDFTLNINSVESEDIADYYCQQTNNWPLTFGAGTKLELK | 4.43 | 0.000177 | 20.9 | 0.000473 | 4.44 | 2.5 | 4.7 | – | – | – | –
humanized anti-GITR antibody 2155 variant HC2-LC1 (antibody, V domains shown, also called LC1 and HC2) VH: QVTLVESGGGLVKPGGSLTLSCGASGFTISSYAMSWVRQSPGKALEWVAIISTGGSTYYPDSVRGRFTISRDNAKNSLYLTMSSLDSVDTATYYCARVGGYYDSMDHWGQGTSVT VL: not shown | – | – | – | – | – | – | – | 0.93 | 4.68 | 0.278 | 1.34
humanized anti-GITR antibody 2155 variant HC3a-LC2a (antibody, V domains shown, also called LC2a and HC3a) VH: QVTLVESGGGLVKPGGSLTLSCGASGFTISSYAMSWVRQSPGKALEWVAIISTGGSTYYPDKFRGRFTISRDNAKNSLYLTMSSLRSEDTATYYCARVGGYYDSMDHWGQGTSVT VL: DIVLTQSPASLSASVGDRATISCRASETVDNYGISFMNWFQQKPGQSPKLLIYAASNQGSGVPARFSGSGSGTDFSLTISPMQPDDTATYYCQQSKEVPWTFGGGTKLE | – | – | – | – | – | – | – | 1.26 | 5.51 | 0.333 | 2.17
humanized anti-GITR antibody 2155 variant HC1-LC1 (antibody, V domains shown, also called LC1 and HC1) VH: QVTLVESGGGLVKPGGSLTLSCGASGFTISSYAMSWVRQSPGKALEWVAIISTGGSTYYPDSVRGRFTISRDNAKNSLYLTMSSLDSVDTAMYYCARVGGYYDSMDHWGQGTSVT VL: not shown | – | – | – | – | – | – | – | 1.08 | 4.03 | 0.206 | 0.91
humanized anti-GITR antibody 2155 variant HC3b-LC2a (antibody, V domains shown, also called LC2a and HC3b) VH: QVTLKESGGGLVKPGGSLTLSCGASGFTISSYAMSWVRQSPGKALEWVAIISTGGSTYYPDKFRGRFTISRDNAKNSLYLTMSSLRSEDTATYYCARVGGYYDSMDHWGQGTSVT VL: DIVLTQSPASLSASVGDRATISCRASETVDNYGISFMNWFQQKPGQSPKLLIYAASNQGSGVPARFSGSGSGTDFSLTISPMQPDDTATYYCQQSKEVPWTFGGGTKLE | – | – | – | – | – | – | – | 1.15 | 4.96 | 0.238 | 1.24
chimeric 2155 antibody (antibody, V domains shown) VH: EVKLVESGGGLVKPGGSLKLSCGASGFTISSYAMSWVRQSPEKRLEWVAIISTGGSTYYPDSVRGRFTISRDNARNSLYLQMSSLRSEDTAMYYCARVGGYYDSMDHWGQGTSVTVSS VL: not shown | – | – | – | – | – | – | – | 1.13 | 5.55 | 0.337 | 0.97
humanized anti-GITR antibody 2155 variant HC4-LC3 (antibody, V domains shown, also called LC3 and HC4) VH: EVQLVESGGGLIQPGGSLKLSCAASGFTISSYAMSWVRQAPGKGLEWVAIISTGGSTYYADSVKGRFTISRDNSKNTLYLQMNSLRAEDTAVYYCARVGGYYDSMDHWGQGTSVT VL: DIVLTQSPASLAVSPGQRATITCRASETVDNYGISFMNWFQQKPGQPPKLLIYAASNQGSGVPARFSGSGSGTDFTLTINPVEADDTANYYCQQSKEVPWTFGQGTKVE | – | – | – | – | – | – | – | 1.21 | 4.52 | 0.259 | 1.08
